Assay results from the nanobody polyreactivity screen of Harvey et al. (2022).

Experiment: yeast display, Sf9 membrane polyspecificity reagent, FACS + sequencing; frameworks hold sequencing errors
In short: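 Using colony PCR, genes from sorted yeast display clones were amplified, then sequenced on MiSeq at 2 × 250 and filtered by CDR length. The clones had been stained with 10% biotinylated, detergent-solubilized Sf9 membrane reagent for 1 hour at 4 °C and sorted by FACS into low and high (top ~1%) gates on anti-HA and streptavidin fluorescence. Polyreactivity labels come from the gate of origin.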

Sequence | polyreactivity (PSR sort gate)
QVQLVESGGGLVQAGGSLRLSCAASGNTFIDYAMGWYRQAPGKERELVASITSGGGSTYYADSVKGRFTISRDNAKNTVYLQMNSLKPEDTAVYYCAAERYYSEAIFRSYDYWGQGTQVTVSS | low polyreactivity
QVQLVESGGGLVQAGGSLRLSCAASGNTFIPNAMGWYRQAPGKERELVAAIRASGGSTYYADSVKGRFTISRDNAKNTVYLLMNSLKPEDTAVYYCNDDIWYKTYDYWGQGTQVTVSS | low polyreactivity
QVQLVESGGGLVQAGGSLRLSCAASGNTFIRNVMGWYRQAPGKERELVAGSRTGGSTFYADSVKGRFTISRDNAKNTVYLQMNSLKPEDTAVYYCNADVGDEGNLPYVIRPMDYWGQGTQVTVSS | low polyreactivity
QVQLVESGGGLVQAGGSLRLSCAASGNTFKGYAMGWYRQAPGKERELVAAISWSGSSTYYADSVKGRFTISRDYAKNTVYLQMNILKPEDTAVYYCNRKYLGRYASVYGYGYWGQGTQVTVSS | high polyreactivity
QVQLVESGGGLVQAGGSLRLSCAASGNTFLIYAMGWYRQAPGKERELVAGITSSGSTYYADSVKGRFTISRDNAKNTVYLQMNSLKPEDTAVFYCAAEYIFYLYYDTAELYDYWGQGTQVTVSS | low polyreactivity
QVQLVESGGGLVQAGGSLRLSCAASGNTFLRYAMGWYRQAPGKERELVAAISRSGGSTYYADSVKGRFTISRDNAKNTVYLQMNSLKPEDTAVYYCATRVYFSPYRYDYWGQGTQVTVSS | high polyreactivity
QVQLVESGGGLVQAGGSLRLSCAASGNTFLYYSMGWYRQAPGKEMELVASINLSDGSTYYADSVKGRFTISRDNAKNTVYFQMNSLKPEDTAVYYCAAVYGGYTIYDYWGQGTQVTVSS | low polyreactivity
QVQLVESGGGLVQAGGSLRLSCAASGNTFNENAMGWYRQSPGKERELVAAITSSGVSTFYADSVKGRFTISRDNAKNTVYLQMNSLKPEDTAVYYCAAEYYELDEYTGDYWVGSDYWGQGTQVTVSS | low polyreactivity
QVQLVESGGGLVQAGGSLRLSCAASGNTFNLYAMGWYRQAPGKERELVASMTSGGGTNYADSVKGRFTISRDNAKNTVYLQMNSLKPEDTAFFYCAATDWFSEYYWGQGTQVTVSS | low polyreactivity
QVQLVESGGGLVQAGGSLRLSCAASGNTFNVYAMGWYRQAPGKERELVAAITLSGGSTYYADSVKGRFTFSRDNAKNTVYLQMNSLKPEDTAVYYCNAEDDGTDYDYWGQGTEVTVSS | low polyreactivity
QVQLVESGGGLVQAGGSLRLSCAASGNTFNYNAMGWYRQAPGKERELVAAITSSGGSTYYADSVKGRFTISRDYAKNTVYLQMNSLKPDDTAVYYCAADLWQDSYSYWFDYWGQGTQVTVSS | high polyreactivity
QVQLVESGGGLVQAGGSLRLSCAASGNTFPVYAMGWYRKASGKERELVATITSGGSTNYADSVKGRFTFSRDNAKNTVYLQMNSLKPEDTAVYYCARRAVYSKRRYDYWGHGTQVTVSS | low polyreactivity
QVQLVESGGGLVQAGGSLRLSCAASGNTFPVYAMGWYRQASGKERELVATITSGGSTNYADSVKGRFTISRDNAKNTVYLQMNSLKQEDTAVYYCARRAVYSKRRYDYWGQGTQVTVSS | low polyreactivity
QVQLVESGGGLVQAGGSLRLSCAASGNTFQDYAMGWYRQAPGKERELVAAITQSGGSTFYADSVKGRFTISRDNAKNTVYLQMNSLKPEDTAVYYCATRTRYPRYYYWGQGTQVTVSS | high polyreactivity
QVQLVESGGGLVQAGGSLRLSCAASGNTFQWYVMGWYRQAPGKERELVAAITTRGGSTYYADSVKGRFTISRDNAKNTVYLQMNSLKPEDTAVYYCAKDWYASWYTKYDYWGQGTQVTVSS | low polyreactivity
QVQLVESGGGLVQAGGSLRLSCAASGNTFRAYAMGWYRQAPGKERELVATITWSGGITDYADSVKGRFTISRDNAKNTVYLQMNSLKPEDTAVYYCAARSYRWWNFNYWGQGTQVTVSS | high polyreactivity
QVQLVESGGGLVQAGGSLRLSCAASGNTFREYGMGWYRQAPGKERELVAAISSTGSTNYADSVKGRFTISRDNAKNTVYLQMNSLKPEDTAVYYCNRDRVWGSGVRTRGDYWGQVTQVTVSS | low polyreactivity
QVQLVESGGGLVQAGGSLRLSCAASGNTFRLYGMGWYRQAPGKERELVAAIRSGDRTYYADSVKGRFTISRDNAKNTVYLQMNSLKPEDTAVYYCAARVNLSKLFGYWGQGTQVTVSS | high polyreactivity
QVQLVESGGGLVQAGGSLRLSCAASGNTFRRYAMGWYRQAPGKERELVAAISYRGGSTYYADSVKGRFTISRDNAQNTVYLQMNSLKPEDTAVSYCNARFATSVLYDYWGQGTQVTVSS | high polyreactivity
QVQLVESGGGLVQAGGSLRLSCAASGNTFRYYAMGWYRQAPGKERELVAAISGDGGSTYYADSVKGRFTISRDNAKNTVYLQMNSLKPEDTAVYYCNKAGRRRYRESDYWGQGTQVTVSS | high polyreactivity
QVQLVESGGGLVQAGGSLRLSCAASGNTFSDYAMGWYRQAPGKERELVAAISSSGVRTYYADSVKGRFTISRDNAKNTVYLQMNSLKPEDTAVYYCNAGYVRRYYPASGYGYWGQGTQVTVSS | high polyreactivity
QVQLVESGGGLVQAGGSLRLSCAASGNTFSPNAMGWYRQAPGKERELVAALDSRDGITYYADSVKGRFTISRDNAKNTVYLQMNSLKPEDPAVYYCNAEGSYPDVSPVLGYDYWGQGTQVTVSS | low polyreactivity

Sequence | polyreactivity (PSR sort gate)
QVQLVESGGGLVQAGGSLRLSCAASGNTFSQYAMGWYRQAPGKERELLAAISGSGGDTYYADSVKGRFTISRDNAKNTVYLQMNIMKPEDTAVYYCNADQESVFYEDYDYWGQGTQVTVSS | low polyreactivity
QVQLVESGGGLVQAGGSLRLSCAASGNTFSSNAMGWYRQAPGKERELVAGITKSGGRTYYADSVKGRFTISRDNAKNTVSLQMNSLKPEDTAVYYCAAVGSTVFGTRYYYWGQGTQVTVSS | high polyreactivity
QVQLVESGGGLVQAGGSLRLSCAASGNTFSYYAMGWYRQAPGKEREFVAAIRKSGASTYYADSVKGRFTISRDNAKNTVYLQMNSLKPEDTAVYYCAADGQVSYALGFDYWGQGTQVTVSS | high polyreactivity
QVQLVESGGGLVQAGGSLRLSCAASGNTFTRNTMGWYRQAPGKERELVASISLSGASTYYADSVKGRFTISRDNAKNTVYLQMNSLKPEDTAVYYCAKRRSYGYYRAYNYWGQGTQVTVSS | high polyreactivity
QVQLVESGGGLVQAGGSLRLSCAASGNTFTTNAMGWYRQAPGKERELVAAIRWRADSTYYADSVKGRFTISRDNAKNTVYLQMNSLKPEDTAVYYCASRYSLRYYYWGQGTQVTVSS | low polyreactivity
QVQLVESGGGLVQAGGSLRLSCAASGNTFVPYAMGWYIQAPRKEREFVAAISSTSGSTYYADSVKGRITISRDNAKNTVYLQMNSLKPEDTAVYYCATKRPYSSKRYKYWKVDYWGQGTQVTVSS | high polyreactivity
QVQLVESGGGLVQAGGSLRLSCAASGNTFVRYAMGWYRQAPGKERELVAAITRSGSSTYYADSVKGRFTISRDNAKNTVYLQMNSLKPEDTAVYYCAAYSWYYAGYDYWGQGTQVTVSS | high polyreactivity
QVQLVESGGGLVQAGGSLRLSCAASGNTFVYNDMGWSRQAPGKERELVADIRYSGSTYYADSVMGRFTISRDNAKNTVYLQMNSLKPEDTAVYYCAKAYYVLSWMGYWGQGTPVTVSS | low polyreactivity
QVQLVESGGGLVQAGGSLRLSCAASGNTFWLNAMGWYRQAPGKERELVASISYSGASTYYADSVKGRFTISRDNAKNTVYFQMNSLKPEDTAVYYCNTDGDDFFHVIYDYWGQGTQVTVSS | low polyreactivity
QVQLVESGGGLVQAGGSLRLSCAASGNTFYANVMGWYRQAPGKERELVASITWSGGSTYYADSVKGRFTISRDNAKNTVYLQMNSLKPEDTAVYYCATSGDRLVWGQGTQVTVSS | low polyreactivity
QVQLVESGGGLVQAGGSLRLSCAASGNTFYAYAMGWYRQAPGKERELVASITLSGDSTYYADSVKGRFTISRDNAKNSVYLQMSSLIPEDTAVYYCAGVYTYPLGYYHYTYDYWGQGTQVTVSS | low polyreactivity
QVQLVESGGGLVQAGGSLRLSCAASGNTFYGYAMGWYRQAPGKERELVAAIRGSDGITFYADSVKGRFTISRDNAKNTVYLQMNSLKPEDTAVYYCAKDTYRSPRHDYGYWGQGTQVTVSS | low polyreactivity
QVQLVESGGGLVQAGGSLRLSCAASGNTFYINAMGWYRQAPGKERELVAAINYSGDSTYADSVKGRFTISRDNAKNTVYLQMNSLKPEDSAVYYCAADWYFSVYIDYDTEYDYWGQGTQVTVSS | low polyreactivity
QVQLVESGGGLVQAGGSLRLSCAASGNTFYINAMGWYRQAPGKERELVAAINYSGESTYADSVKGRFTISRDNAKNTVYFQMNSLKPEDTAVYYCAADWYFSVYIDYDTEYDYWGQGTQVTVSS | low polyreactivity
QVQLVESGGGLVQAGGSLRLSCAASGNTFYPYAMGWYRQAPGKERELVATIRGSDDSTYYADSVKGRFTISRDNAKNTVYLQMNSLKPEDTAVYDCAADDVVSTFLRGYVRYDYWGQGTQVTVSS | high polyreactivity
QVQLVESGGGLVQAGGSLRLSCAASGNTFYRYAMGWNRQAPGKERELVAAISNGGSTNYADSVKGRFTISRDNAKNTVYLQMNSLKPEDSAVYYWAAANTRRYTHGFWGHGTQVTVSS | high polyreactivity
QVQLVESGGGLVQAGGSLRLSCAASGNTFYVNVMGWYRPAPGKEREFVAAISTRGVSTSYADSVKGRFTISRDNAKNTVYFQMNSLKPEDTAVYYGAARYYYRDWVGIISTYYYWGQGTQVTVSS | high polyreactivity
QVQLVESGGGLVQAGGSLRLSCAASGNTFYWNAMGWYRQAAGKERELVAAISTTGVSTYYADSVKGRFTISRDNAKNTVYLQMNSLKPEDTAVYYCATVSYYDRYDYDYWGQGTQVTVSS | low polyreactivity
QVQLVESGGGLVQAGGSLRLSCAASGNTINKYAMGWYRQAPGKERELVAAITRSGGSTYYADSVKGRFTISRDKAKNTVYLQMNSLKPEDTAVYYCAAAYWILYYPIDQAFDYWGQGTQVTVSS | low polyreactivity
QVQLVESGGGLVQAGGSLRLSCAASGNTLLSYAMGWYRQAPGKEWELVAAISIDGSTIYADSVKGRFTISRDNAKNTVYLQMNSLKPEDTAVYYCNADRTPFAEMDYWGQGTQVTVSS | low polyreactivity
QVQLVESGGGLVQAGGSLRLSCAASGNTLNYYTMGWYRQAPGKERELVAAISSSGGSTYYADSVKGRFTISRDNAKNTVYLQMNSLKPEDTAVYYCAVLFYNNFGYWGQGTQVTVSS | low polyreactivity
